Laboratory results published in PMC5175582.

Assays:
[1] = target: Biotin-labelled MMRN1 (human) (UniProt Q13201); assay: SPR; BIAcoreX; biotin-labelled MMRN1 immobilised on streptavidin-coated sensor chips (500–1000 RU); VWF A domains perfused in HEPES-Tyrode running buffer with 0.005 % P-20; two-state conformational model for A1A2A3 and A1, 1:1 Langmuir model for A3; apparent affinity
[2] = target: full-length wild-type (WT)-VWF (UniProt P04275); assay: ELISA; modified ELISA; MMRN1 immobilised; WT-VWF (1 µg/ml) added simultaneously with collagen peptide (250 μg/ml, no preincubation with VWF); treatment of VWF not stated for this panel

Chain of Biotin-labelled MMRN1 (human) (Q13201 20-1228): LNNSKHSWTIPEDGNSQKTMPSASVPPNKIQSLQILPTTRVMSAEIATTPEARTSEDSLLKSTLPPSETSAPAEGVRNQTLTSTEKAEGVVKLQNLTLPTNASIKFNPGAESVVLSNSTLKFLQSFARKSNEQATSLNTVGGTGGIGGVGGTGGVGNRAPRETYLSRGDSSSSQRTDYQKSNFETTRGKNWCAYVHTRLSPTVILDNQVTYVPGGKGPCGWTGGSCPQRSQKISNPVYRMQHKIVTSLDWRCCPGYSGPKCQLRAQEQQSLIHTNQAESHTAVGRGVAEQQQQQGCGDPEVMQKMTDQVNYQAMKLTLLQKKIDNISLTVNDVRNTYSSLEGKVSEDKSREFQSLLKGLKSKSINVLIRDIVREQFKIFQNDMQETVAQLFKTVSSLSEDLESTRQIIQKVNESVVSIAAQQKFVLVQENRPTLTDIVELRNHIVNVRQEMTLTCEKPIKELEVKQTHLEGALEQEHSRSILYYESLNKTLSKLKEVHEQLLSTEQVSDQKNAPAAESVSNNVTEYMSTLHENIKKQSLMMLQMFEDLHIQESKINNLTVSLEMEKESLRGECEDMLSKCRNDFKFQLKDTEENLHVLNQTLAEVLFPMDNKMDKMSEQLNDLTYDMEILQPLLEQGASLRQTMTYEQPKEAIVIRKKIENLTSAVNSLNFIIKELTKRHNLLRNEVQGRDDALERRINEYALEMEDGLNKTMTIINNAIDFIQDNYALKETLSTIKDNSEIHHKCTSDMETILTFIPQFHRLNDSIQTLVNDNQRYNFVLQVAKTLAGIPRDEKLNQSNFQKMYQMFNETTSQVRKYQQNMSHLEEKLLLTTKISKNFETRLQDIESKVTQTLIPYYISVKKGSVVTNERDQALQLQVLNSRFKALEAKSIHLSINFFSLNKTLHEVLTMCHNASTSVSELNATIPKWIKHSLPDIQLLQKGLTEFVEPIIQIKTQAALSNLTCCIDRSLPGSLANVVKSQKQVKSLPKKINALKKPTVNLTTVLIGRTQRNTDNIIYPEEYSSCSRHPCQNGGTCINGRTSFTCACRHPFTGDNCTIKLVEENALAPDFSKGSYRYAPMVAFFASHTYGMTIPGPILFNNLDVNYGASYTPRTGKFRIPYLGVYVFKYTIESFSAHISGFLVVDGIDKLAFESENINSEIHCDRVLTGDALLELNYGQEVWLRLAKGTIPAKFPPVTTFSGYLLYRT

Kd [1]	ka1 (two-state model, first step) [1]	ka2 (two-state model, second step) [1]	kd1 (two-state model, first step) [1]	kd2 (two-state model, second step) [1]	percent reduction of WT-VWF binding to immobilised MMRN1 [2]	Substance
39.3 nM	1.2e+06 M⁻¹ s⁻¹	0.01 s⁻¹	0.13 s⁻¹	0.0032 s⁻¹	–	Monomeric VWF A1 domain (domain or fragment)
–	–	–	–	–	70%	Triple-helical type III collagen peptide GPRGQOGVMGFO
